Each block holds one molecule with its values, some of them ahead of it.
Experiments:
mt tRNA^Trp = test: Assay of aminoacylation activity using 14C tryptophan; format: biochemical, yeast; settings: 30° C., 0-16 minutes; mtWRS with mt tRNA^Trp; FIG. 11
Protocol: In order to assay enzyme activity, aminoacylation was carried out using ^14C tryptophan. The reaction solution having the composition shown below was heated at 30° C. for about 5 minutes while the enzyme was removed therefrom. Thereafter, the enzyme was added, the mixture was incubated at 30° C., the mixture was spotted on a filter wetted with 5% TCA 0, 1, 4, 9, and 16 minutes after incubation, and the filter was then soaked in 5% TCA. After spotting of the reaction solution at each time point was completed, 5% TCA was discarded, and fresh 5% TCA was added to the beaker, followed by shaking for 10 minutes. This procedure was repeated twice, 100% ethanol was added, and the mixture was lightly shaken, followed by dehydration under an electric heat. Thereafter, the resultant was soaked in a scintillator, and the samples were counted using a liquid scintillation counter.
The reaction solution for aminoacylation (50 μl) was prepared by diluting 10 μl of 5×AAM (aminoacylation mixture), 0.05 A260 units of mt tRNA^Trp, an adequate amount of enzyme (depending on the concentration), and 2 μl of ^14C tryptophan in dH2O.
The 5×AAM (aminoacylation mixture) comprised 500 mM Tris-HCl (pH 7.6), 50 mM MgCl2, 200 mM KCl, and 20 mM ATP.
A scintillator (1 liter) was prepared by diluting 4 g of Dotite DPO and 0.1 g of Dotite POPOP in toluene.

[1] = tested on: tRNA^Tyr precursor having on the 5′ end an additional sequence; test: Confirmation of C5 protein and M1 RNA (RNase P) cleavage activity; format: biochemical; settings: 150 pmol tRNA^Tyr precursor; 7M urea denatured polyacrylamide gel, methylene blue; FIG. 7
Protocol: In order to assay enzyme activity, 150 pmol of the tRNA^Tyr precursor having on the 5′ end an additional sequence was subjected to the reaction with 30 pmol of C5 proteins and […] of M1 RNA. The reaction buffer comprises 50 mM Tris-HCl (pH 7.4), 10 mM MgCl2, and 100 mM NH4Cl. The reaction solution was separated using a 7M urea-containing denatured polyacrylamide gel, and nucleic acid components were stained with methylene blue.

B1: mtWRS: yeast (Saccharomyces cerevisiae) mitochondrial tryptophanyl tRNA synthetase, SEQ ID NO: 2, His-tagged, expressed from pYC2WRS (protein)
chain: ISTVQRADFKLNSEALHSNATVFSMIQPTGCFHLGNYLGATRVWTDLCELKQPGQELIFGVADLHAITVPKPDGEMFRKFRHEAVASILAVGVDPEKASVIYQSAIPQHSELHWLLSTLASMGLLNRMTQWKSKSNIKQSTNGDYLVNDSDVGKVRLGLFSYPVLQAADILLYKSTHVPVGDDQSQHLELTRHLAEKFNKMYKKNFFPKPVTMLAQTKKVLSLSTPEKKMSKSDPNHDSVIFLNDEPKAIQKKIRKALTDSISDRFYYDPVERPGVSNLINIVSGIQRKSIEDVVEDVSRFNNYRDFKDYVSEVIIEELKGPRTEFEKYINEPTYLHSVVESGMRKAREKAAKNLADIHKIMGF
modifications: His tag
- capacity of tRNA for accepting 14C-tryptophan (mt tRNA^Trp): acceptance of tryptophan was observed

- cleavage activity [1]: Cleavage activity could not be confirmed
B2: C5 protein: protein component of E. coli RNase P (rnpA gene), expressed from pETC5 (protein, UniProt P0A7Y8 1-119, looked up)
Ribonuclease P protein …: MVKLAFPRELRLLTPSQFTFVFQQPQRAGTPQITILGRLNSLGHPRIGLTVAKKNVRRAHERNRIKRLTRESFRLRQHELPAMDFVVVAKKGVADLDNRALSEALEKLWRRHCRLARGS

— patent US20090023139A1, “Method For Site-Specifically Introducing Non-Natural Amino Acid Into Protien Using Mitochondrial Protein and Method For Effectively Preparing Trna” (priority 2004, published 2009)
